Laboratory results from patent US6521602 (GPC BIOTECH, dated 2003).
Values belong to the molecule of their own block, whether it stands above or below them.

Target: CDK4/cyclin D1 complex (UniProt P11802 1-303; P24385 1-295)
Assay: cell-based or functional assay

Chain of CDK4/cyclin D1 complex (P11802 whole entry, chain 1 of 2): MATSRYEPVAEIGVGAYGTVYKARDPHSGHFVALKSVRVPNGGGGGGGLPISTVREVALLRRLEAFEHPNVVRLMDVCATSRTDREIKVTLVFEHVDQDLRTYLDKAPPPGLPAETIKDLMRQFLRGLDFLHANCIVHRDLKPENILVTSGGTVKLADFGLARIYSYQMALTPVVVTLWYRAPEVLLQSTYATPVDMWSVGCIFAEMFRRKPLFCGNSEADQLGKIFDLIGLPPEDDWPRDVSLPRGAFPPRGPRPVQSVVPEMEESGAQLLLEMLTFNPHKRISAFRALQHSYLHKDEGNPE
Chain of CDK4/cyclin D1 complex (P24385 whole entry, chain 2 of 2): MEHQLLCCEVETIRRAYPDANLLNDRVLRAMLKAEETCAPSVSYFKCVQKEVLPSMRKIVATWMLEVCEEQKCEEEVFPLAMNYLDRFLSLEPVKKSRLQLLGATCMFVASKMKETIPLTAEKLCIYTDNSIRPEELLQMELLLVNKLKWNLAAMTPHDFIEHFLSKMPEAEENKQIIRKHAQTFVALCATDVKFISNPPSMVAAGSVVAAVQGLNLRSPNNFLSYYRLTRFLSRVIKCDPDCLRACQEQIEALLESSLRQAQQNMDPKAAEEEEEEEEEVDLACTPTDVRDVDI

IC50, in vitro kinase activity: 63 nM
Molecule: human p27 (from UniProt P46527 1-198)

IC50, in vitro kinase activity: 250 nM
B1: human p16 (other)
chain: MEPAAGSSMEPSADWLATAAARGRVEEVRALLEAGALPNAPNSYGRRPIQVMMMGSARVAELLLLHGAEPNCADPATLTRPVHDAAREGFLDTLVVLHRAGARLDVRDAWGRLPVDLAEELGHRDVARYLRAAAGGTRGSNHARIDAAEGPSDIPD
